Measured values reported in publication PMC4922627.

Experiments:
[1] = target: TEV-cleaved ICP35 (White spot syndrome virus); assay: SDS-PAGE without boiling; purified protein loaded on 12% SDS-PAGE with and without boiling, Coomassie stain and Western blot; TEV-cleaved ICP35 concentrated to 10 mg/ml to induce oligomerization
[2] = target: TEV-cleaved ICP35 (White spot syndrome virus); assay: SEC; HiLoad 16/600 Superdex 200; 20 mM Tris-HCl pH 8.0, 200 mM NaCl, 5 mM MgSO4; peak fractions checked by SDS-PAGE

Substance TEV-cleaved ICP35 (domain or fragment) has a stoichiometry N [1] of 2 and a stoichiometry N [2] of 2.
